# Measured values as given in patent US20220204611A1 (Amgen, published 2022).
# Positions count from the first letter of the chain named.
# T1: recombinant soluble human TREM2 protein (human TREM2 ECD-FlagHis) (human, UniProt Q9NZC2 19-174)
# T1 sequence: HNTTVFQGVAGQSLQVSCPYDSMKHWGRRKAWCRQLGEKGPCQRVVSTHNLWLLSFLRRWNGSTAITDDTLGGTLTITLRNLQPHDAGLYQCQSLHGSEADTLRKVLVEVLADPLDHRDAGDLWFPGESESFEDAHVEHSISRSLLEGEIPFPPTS
# T2: soluble human TREM2 protein (TREM2 ECD-huIgG1 Fc fusion protein) (human, UniProt Q9NZC2 19-174, biotinylated)
# T2 construct: also called biotinylated soluble human TREM2 protein
# T2 sequence: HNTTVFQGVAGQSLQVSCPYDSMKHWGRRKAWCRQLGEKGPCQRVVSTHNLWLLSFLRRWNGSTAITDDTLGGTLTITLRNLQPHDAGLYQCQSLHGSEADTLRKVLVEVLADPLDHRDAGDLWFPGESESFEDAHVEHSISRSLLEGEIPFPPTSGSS
# T3: human TREM2 on cells (human, UniProt Q9NZC2 19-230)
# T3 sequence: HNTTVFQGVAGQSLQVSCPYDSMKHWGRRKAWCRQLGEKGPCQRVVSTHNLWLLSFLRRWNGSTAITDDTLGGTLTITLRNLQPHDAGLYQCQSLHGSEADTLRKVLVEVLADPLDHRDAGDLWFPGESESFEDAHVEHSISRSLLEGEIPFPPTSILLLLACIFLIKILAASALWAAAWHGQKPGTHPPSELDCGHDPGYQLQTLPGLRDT
# T4: recombinant soluble cynomolgus TREM2 protein (cynomolgus TREM2 extracellular domain coupled to a Flag/His tag) (cynomolgus, UniProt A0A2K5UY34 49-204)
# T4 construct: extracellular domain; also called Cyno TREM2
# T4 sequence: T1 sequence with A10E, W60R, L89F, F125V
# B1: 4G10 (antibody, human IgG2, V domains shown)
# VH: EVQLVQSGAEVKKPGESLKISCKGSGYSFPSYWIAWVRQMPGKGLEWMGIIYPGDSDTRYSPSFQGQVTISADKSISTAFLKWSSLKASDTAMYFCARQGIEVTGTGGLDVWGQGTTVTVSS
# VL: DIQMTQSPSSLSASVGDRVTITCRASQGIRNDLGWYQQKPGNAPKRLIYAASSLPSGVPSRFSGSGSGPEFTLTISSLQPEDFATYYCLQHNSYPWTFGQGTKVEIT
# notes: human IgG2 from hybridoma
# Legend:
# [1] = biological target: T1, recombinant soluble human TREM2 protein …; assay: Octet BLI binning; competitor: load Ab 10E3
# Experimental: (§1) Each of sixteen different anti-TREM2 antibodies produced from hybridomas were quantitated and loaded onto one of the anti-human Fc sensors at 5 μg/mL for 2 minutes (“Load Antibody”). The sensor was then blocked with 100 μg/mL of an irrelevant human IgG2 antibody for 5 minutes. […] Next, each of the sixteen different anti-TREM2 antibodies (“Sandwich Antibody”) was added to the sensor at 5 μg/mL and allowed to bind for 5 minutes. All assay buffers contained 10 mM Tris (pH 7.6), 0.1% Triton X-100, 150 mM NaCl, 1 mM CaCl₂, and 1 mg/mL BSA. The assay was conducted at 25° C. Experimental kinetic results were fit to a 1:1 binding model.
# (§2) However, if addition of the sandwich antibody produces a binding event, then the sandwich antibody binds to a different epitope on human TREM2 than the load antibody and the two antibodies are categorized into different epitope bins.
# [2] = biological target: T2, soluble human TREM2 protein (TREM2 …); assay: ELISA, hybridoma supernatant on captured biotinylated TREM2 ECD-Fc
# [3] = biological target: T3, human TREM2 on cells; assay: cell-based or functional assay
# [4] = biological target: T3, human TREM2 on cells; assay: cell-based or functional assay; remark: listed apart in the source
# [5] = biological target: T1, recombinant soluble human TREM2 protein …; assay: Octet BLI, antibody on anti-human Fc sensor, 25 C
# Experimental: (§3) To quantitate the binding affinity of agonist antibodies for human TREM2, association and dissociation rate constants as well as the equilibrium dissociation constant were determined using anti-human Fc (Kinetic) sensors on an Octet® HTX instrument (Pall ForteBio). Agonist anti-TREM2 antibodies were made up in DMEM null media, 250 μL at 10 μg/mL. The, 250 uL of assay buffer (10 mM Tris (pH 7.6), 0.1% Triton X-100, 150 mM NaCl, 1mM CaCl₂, and 1 mg/mL BSA) was added to the antibody solutions to a final volume of 500 μL and final antibody concentration of 5 μg/mL. The anti-human Fc sensor was pre-incubated in 200 μL of the assay buffer for a minimum of 10 minutes. The sensor was then regenerated for 5 seconds in 10 mM glycine pH 1.5. Test agonist anti-TREM2 antibodies were loaded onto the sensor for 2 minutes, and baseline measurements were taken for 2 minutes. […] The recombinant TREM2 proteins were allowed to associate with the antibody-loaded sensor for 10 minutes, and then dissociation was measured for 10 minutes. The assay was conducted at 25° C. Experimental kinetic results were globally fit to a 1:1 binding model in order to determine the association and dissociation rate constants as well as the equilibrium dissociation constant.
# [6] = biological target: T4, recombinant soluble cynomolgus TREM2 …; assay: Octet BLI, antibody on anti-human Fc sensor, 25 C
# Experimental: as §3
# [7] = biological target: T1, recombinant soluble human TREM2 protein …; assay: Octet BLI binning; competitor: load Ab 26F2
# Experimental: as §1, §2
# [8] = biological target: T1, recombinant soluble human TREM2 protein …; assay: Octet BLI binning; competitor: load Ab 32E3
# Experimental: as §1, §2
# [9] = biological target: T1, recombinant soluble human TREM2 protein …; assay: Octet BLI binning; competitor: load Ab 4G10
# Experimental: as §1, §2
# [10] = biological target: T1, recombinant soluble human TREM2 protein …; assay: Octet BLI binning; competitor: load Ab 4C5
# Experimental: as §1, §2
# [11] = biological target: T1, recombinant soluble human TREM2 protein …; assay: Octet BLI binning; competitor: load Ab 24G6
# Experimental: as §1, §2
# [12] = biological target: T1, recombinant soluble human TREM2 protein …; assay: Octet BLI binning; competitor: load Ab 25F12
# Experimental: as §1, §2
binder,measurement,setting,value
B1,sandwich binding signal,[1],-0.019
same,OD 450,[2],3.17 OD450
same,pSyk EC50,[3],0.47 nM
same,Emax (% maximum activation compared to RnD antibody),[4],236%
same,"pSyk EC50, differentiated THP-1 cells",[4],0.579 nM
same,Kd,[5],3.3 nM
same,Kd,[6],1.7 nM
same,sandwich binding signal,[7],0.18
same,sandwich binding signal,[8],-0.029
same,sandwich binding signal,[9],-0.026
same,sandwich binding signal,[10],-0.018
same,sandwich binding signal,[11],0.184
same,sandwich binding signal,[12],0.199
